The text below walks through data of patent US7413866B2, “Compositions and methods for detecting and treating diseases and conditions related to chemokine receptors” (ChemoCentryx, Inc., priority 2001, dated 2008).

One assay concerns MDA MB-231 cells. Briefly: Matrigel invasion assay. The class given is cell-based, human. To be noted: breast tumor cells, 22 hrs. How it is done: Invasion Assay. Invasion assays were performed as per the manufacturer's instructions. Briefly, chemokines were diluted in HBSS (Life Technologies, Gaithersburg, Md.) supplemented with 0.1% bovine albumin (Sigma Chemical Company, St. Louis, Mo.) and added to the lower wells of BD BioCoat Matrigel Invasion chambers (BD Biosciences, Bedford, Mass.). MDA MB-231 cells were added to the matrigel coated inserts and the plates were incubated at 37° C. in a humidified incubator at a 5% CO2/air mixture for 22 hrs. Following this incubation, the inserts were transferred to a new plate and the media in the inserts was removed. Using a cotton swab the matrigel plug was removed from each well. The filters were then stained using Protocol Hema staining system (Biochemical Sciences, Inc., Swedesboro, N.J.). Invading cells were examined under a Nikon Elipse E800 (Nikon, Inc., Melville, N.Y.) microscope with a 40× lens. Cells were counted in 5 fields of view of each filter. Data represent the mean of 5 fields of view from each filter tested in triplicate.

The subject of assay [1] is tumor cells expressing the tumor correlated form of CXCR4. Briefly: Serum starvation apoptosis of tumor cells. Format: cell-based. To be noted: serum starved overnight, compared to untreated controls.
Assay [2] deals with T1, CXCR4 on E17 fetal liver cells (Mus musculus, UniProt P70658).
T1 construct: the E17 fetal liver cells also express CXCR4; from tissue; host or cells: fetal liver cells of wildtype mouse embryos, E17
Briefly: SDF-1 mediated calcium mobilization in E17 fetal liver cells. To be noted: wildtype mouse embryo E17 fetal liver cells. Format: cell-based. (In general: Calcium assays in cells follow changes in intracellular calcium, usually with a dye or a luminescent sensor.)

Assay [3] concerns the target CCR1 on monocytes (UniProt P32246). Briefly: 125I MIP-1α competition binding on cells; monocytes. As to conditions: ligand.
Assay [4] has as its target CCR1 on THP-1 cells (acute monocytic leukemia) (UniProt P32246). Briefly: 125I MIP-1α competition binding on cells; THP-1 cells. As to conditions: ligand.
Assay [5] deals with CCR1 expressed on NSO transfectants (UniProt P32246). Briefly: 125I MIP-1α competition binding on cells; NSO-CCR1 cells. As to conditions: ligand.
In assay [6] the target is CCR1 expressed on HEK293 transfectants (UniProt P32246). Briefly: 125I MIP-1α competition binding on cells; HEK293-CCR1 cells. As to conditions: ligand.
Assay [7] addresses T2, CXCR4 on MCF-7 cells (Homo sapiens, UniProt P25106).
T2 construct: host or cells: MCF-7 (whole cells)
Briefly: 125I I-TAC competition binding on MCF-7 cells. The source says: Binding Analysis. We employed our technique, DisplaceMax, to examine the global profile of chemokine ligand interaction with CXCR4 on MCF-7 and CEM-NKr cells. This technology employs expanded, efficiency-maximized radioligand binding using filtration protocols as described previously (Kledal T N, et al. Science 277:1656-1659 (1997); Dairaghi, et al. J Biol Chem 274:21569-74 (1999); Gosling, J. et al. J Immunol 164:2851-6 (2000)). […] Where indicated, anti-CXCR4 antibodies or isotype controls were included in the binding reactions. In these experiments cells were pre-incubated with the indicated concentration of antibody for 30 min at 4° C. prior to the addition of radiolabeled chemokine. Small molecules were included in some assays, where indicated. In these assays the compound was added to the plate to the indicated concentration followed by the addition of radiolabeled chemokine. All assays were then incubated for 3 hrs at 4° C. with gentle agitation. […] Scintillant (MicroScint 10, Packard) was added to the wells, and the filters were counted in a Packard Topcount scintillation counter. Data were analyzed and plotted using Prism (GraphPad Prism version 3.0a for Macintosh, GraphPad Software).

Assay [8] concerns the target T3, CXCR4 on MCF-7 cells (Homo sapiens).
T3 construct: host or cells: MCF-7 (whole cells)
Briefly: 125I SDF-1α competition binding on MCF-7 cells. To be noted: cold competitor array. An excerpt: (§1) Binding Analysis. We employed our technique, DisplaceMax, to examine the global profile of chemokine ligand interaction with CXCR4 on MCF-7 and CEM-NKr cells. This technology employs expanded, efficiency-maximized radioligand binding using filtration protocols as described previously (Kledal T N, et al. Science 277:1656-1659 (1997); Dairaghi, et al. J Biol Chem 274:21569-74 (1999); Gosling, J. et al. J Immunol 164:2851-6 (2000)). […] Where indicated, anti-CXCR4 antibodies or isotype controls were included in the binding reactions. In these experiments cells were pre-incubated with the indicated concentration of antibody for 30 min at 4° C. prior to the addition of radiolabeled chemokine. Small molecules were included in some assays, where indicated. In these assays the compound was added to the plate to the indicated concentration followed by the addition of radiolabeled chemokine. All assays were then incubated for 3 hrs at 4° C. with gentle agitation. Following incubation in all binding assays, reactions were aspirated onto PEI-treated GF/B glass filters (Packard) using a cell harvester (Packard) and washed twice (25 mM HEPES, 500 mM NaCl, 1 mM CaCl2, 5 mM MgCl2, adjusted to pH 7.1). Scintillant (MicroScint 10, Packard) was added to the wells, and the filters were counted in a Packard Topcount scintillation counter. Data were analyzed and plotted using Prism (GraphPad Prism version 3.0a for Macintosh, GraphPad Software).

For assay [9], the target named is T2, CXCR4 on MCF-7 cells. Briefly: 125I SDF-1α competition binding on MCF-7 cells.
Text: as §1

Assay [10] concerns the target T4, CXCR4 on E13 fetal liver cells (Mus musculus).
T4 construct: from tissue; host or cells: fetal liver cells of wildtype mouse embryos, E13
Briefly: Radiolabeled human-SDF-1 binding competition on E13 fetal liver cells. As to conditions: wildtype mouse embryo E13 fetal liver cells.

Assay [11] deals with T5, CCR1 on monocytes (UniProt P32246 1-355).
T5 chain: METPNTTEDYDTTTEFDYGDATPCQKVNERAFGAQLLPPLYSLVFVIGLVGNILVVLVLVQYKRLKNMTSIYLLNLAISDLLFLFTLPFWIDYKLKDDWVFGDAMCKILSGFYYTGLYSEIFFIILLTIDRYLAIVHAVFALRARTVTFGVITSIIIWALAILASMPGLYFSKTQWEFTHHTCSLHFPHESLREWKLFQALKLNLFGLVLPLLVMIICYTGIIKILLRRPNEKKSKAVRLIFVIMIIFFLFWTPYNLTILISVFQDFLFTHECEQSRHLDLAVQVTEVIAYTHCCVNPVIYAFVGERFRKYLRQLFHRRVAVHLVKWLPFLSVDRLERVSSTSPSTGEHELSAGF
Briefly: 125I MIP-1α competition binding on cells; monocytes.

Assay [12] has as its target T6, CCR1 on THP-1 cells (acute monocytic leukemia) (UniProt P32246 1-355).
T6 chain: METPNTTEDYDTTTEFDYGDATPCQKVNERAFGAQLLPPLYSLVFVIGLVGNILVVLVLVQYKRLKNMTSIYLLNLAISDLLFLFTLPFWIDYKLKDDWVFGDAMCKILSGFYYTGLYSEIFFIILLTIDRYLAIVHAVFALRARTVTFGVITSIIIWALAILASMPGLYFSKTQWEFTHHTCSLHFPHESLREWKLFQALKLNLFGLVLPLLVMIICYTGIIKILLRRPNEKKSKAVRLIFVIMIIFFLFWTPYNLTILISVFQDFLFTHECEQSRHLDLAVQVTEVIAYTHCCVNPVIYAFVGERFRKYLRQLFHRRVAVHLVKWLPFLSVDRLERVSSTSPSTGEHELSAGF
Briefly: 125I MIP-1α competition binding on cells; THP-1 cells.

Assay [13] addresses T7, CCR1 expressed on NSO transfectants (UniProt P32246 1-355).
T7 chain: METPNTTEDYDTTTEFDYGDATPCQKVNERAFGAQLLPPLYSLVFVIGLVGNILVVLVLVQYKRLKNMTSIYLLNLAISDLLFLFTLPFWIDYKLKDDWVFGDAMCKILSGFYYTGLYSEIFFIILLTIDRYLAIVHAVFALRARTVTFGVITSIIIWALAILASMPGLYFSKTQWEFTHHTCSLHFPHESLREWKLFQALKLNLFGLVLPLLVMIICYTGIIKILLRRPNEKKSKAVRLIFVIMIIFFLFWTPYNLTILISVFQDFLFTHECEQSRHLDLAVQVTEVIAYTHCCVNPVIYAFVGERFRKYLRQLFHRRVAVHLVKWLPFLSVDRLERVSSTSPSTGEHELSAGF
Briefly: 125I MIP-1α competition binding on cells; NSO-CCR1 cells.

Assay [14] has as its target T8, CCR1 expressed on HEK293 transfectants (UniProt P32246 1-355).
T8 chain: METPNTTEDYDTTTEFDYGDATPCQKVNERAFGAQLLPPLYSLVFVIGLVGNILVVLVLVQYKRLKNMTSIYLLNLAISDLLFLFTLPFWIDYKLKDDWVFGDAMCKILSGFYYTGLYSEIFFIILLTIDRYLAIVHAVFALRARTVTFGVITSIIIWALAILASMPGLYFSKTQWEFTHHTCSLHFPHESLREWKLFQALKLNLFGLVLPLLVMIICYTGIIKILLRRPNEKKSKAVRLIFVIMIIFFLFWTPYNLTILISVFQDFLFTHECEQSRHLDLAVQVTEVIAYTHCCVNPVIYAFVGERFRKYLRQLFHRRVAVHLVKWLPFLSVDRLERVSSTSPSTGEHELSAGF
Briefly: 125I MIP-1α competition binding on cells; HEK293-CCR1 cells.

In another assay the target is T9, CCR1 (Homo sapiens, UniProt P32246).
T9 sequence (P32246 1-355): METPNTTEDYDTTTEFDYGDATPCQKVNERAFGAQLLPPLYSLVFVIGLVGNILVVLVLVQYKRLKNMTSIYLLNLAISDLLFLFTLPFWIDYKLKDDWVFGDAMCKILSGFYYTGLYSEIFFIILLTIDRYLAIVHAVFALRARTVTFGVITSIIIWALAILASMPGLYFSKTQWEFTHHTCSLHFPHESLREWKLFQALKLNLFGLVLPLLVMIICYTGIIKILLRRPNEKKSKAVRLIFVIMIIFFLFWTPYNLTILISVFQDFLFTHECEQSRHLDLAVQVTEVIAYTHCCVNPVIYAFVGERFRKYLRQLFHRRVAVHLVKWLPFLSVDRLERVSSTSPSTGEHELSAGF
Briefly: Intracellular Ca2+ mobilization via CCR1. Format: cell-based. The arrangement: endogenous in cells; host or cells: THP-1, monocytes, neutrophils, immature DC (endogenous); also HEK293-CCR1 and NSO-CCR1 transfectants.

Broadly, the IC50 is the point on the concentration scale where inhibition reaches its midpoint.

Some results are limits rather than exact numbers.

T2 sequence (P25106 whole entry): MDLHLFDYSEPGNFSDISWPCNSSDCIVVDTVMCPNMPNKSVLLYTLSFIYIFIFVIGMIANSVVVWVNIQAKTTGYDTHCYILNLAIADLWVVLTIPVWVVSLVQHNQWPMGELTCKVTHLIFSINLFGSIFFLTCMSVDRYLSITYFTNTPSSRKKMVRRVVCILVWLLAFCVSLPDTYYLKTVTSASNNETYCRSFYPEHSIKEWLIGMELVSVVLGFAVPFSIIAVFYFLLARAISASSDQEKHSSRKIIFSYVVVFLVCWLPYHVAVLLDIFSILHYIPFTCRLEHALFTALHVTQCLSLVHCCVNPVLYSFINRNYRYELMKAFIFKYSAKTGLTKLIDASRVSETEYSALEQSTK
T4 sequence (P56485 whole entry): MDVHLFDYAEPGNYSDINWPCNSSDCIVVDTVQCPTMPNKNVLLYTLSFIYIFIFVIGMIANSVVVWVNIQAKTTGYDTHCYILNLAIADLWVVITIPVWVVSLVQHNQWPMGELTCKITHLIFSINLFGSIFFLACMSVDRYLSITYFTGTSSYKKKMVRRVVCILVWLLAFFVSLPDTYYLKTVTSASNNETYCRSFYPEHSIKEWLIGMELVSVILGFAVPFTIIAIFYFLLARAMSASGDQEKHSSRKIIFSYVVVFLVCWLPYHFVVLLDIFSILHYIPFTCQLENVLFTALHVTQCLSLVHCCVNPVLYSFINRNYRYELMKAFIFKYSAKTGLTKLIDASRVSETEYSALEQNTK
T1 sequence (P70658 whole entry): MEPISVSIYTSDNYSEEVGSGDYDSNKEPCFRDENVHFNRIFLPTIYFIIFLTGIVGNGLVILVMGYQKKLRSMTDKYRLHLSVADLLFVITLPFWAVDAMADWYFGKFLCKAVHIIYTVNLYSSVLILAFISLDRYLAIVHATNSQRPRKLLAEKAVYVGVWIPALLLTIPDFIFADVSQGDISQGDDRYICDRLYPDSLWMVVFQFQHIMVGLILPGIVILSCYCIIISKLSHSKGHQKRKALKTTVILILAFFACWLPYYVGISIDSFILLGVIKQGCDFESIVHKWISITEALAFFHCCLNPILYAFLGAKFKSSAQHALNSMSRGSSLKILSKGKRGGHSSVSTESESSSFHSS
T3 sequence (P25106 whole entry): as the sequence (P25106 whole entry) above

With “SDF-1: CXC chemokine, ligand for CXCR4, isoform not stated”, the cell invasion result with MDA MB-231 cells is on record as “induced cell invasion”. Besides, the “recovery from serum starvation induced apoptosis” value in [1] was “able to recover from the starvation”. In assay [2], the “intracellular calcium mobilization in E17 fetal liver cells” value is “mobilizing intracellular calcium”.

As to “CKβ8 (25-99) (from UniProt P55773 46-120)”, the IC50 worked out at 0.25 nM in the assay with CCR1 on monocytes [3], 0.27 nM in assay [4], 0.02 nM in assay [5] and 1.34 nM in assay [6].

As for “MIG: monokine induced by gamma interferon, CXCR3 ligand”, the “inhibition of 125I I-TAC binding to MCF-7 by cold chemokine competitor (in words)” value in the assay with CXCR4 on MCF-7 cells [7] (MCF-7 cells) is recorded as “not inhibited”. Moreover, in the assay with CXCR4 on MCF-7 cells [7] (excess SDF-1β ~90 nM or excess MIG ~175 nM, 30 min at 4° C.), the “effect of pre-incubation with excess chemokine on 125I I-TAC binding to MCF-7” value was “did not effect this binding profile”.

For “I-TAC: recombinant human chemokine, reported CXCR3 ligand”, the “DisplaceMax displacement of 125I SDF-1α on MCF-7, affinity class” value in assay [8] is “high affinity”. In addition, the “competition with / inhibition of 125I SDF-1α binding on MCF-7 (in words)” value in the assay with CXCR4 on MCF-7 cells [9] was “does compete”. Also, in assay [10], the “competition with radiolabeled human-SDF-1 for binding to E13 fetal liver cells” value was “able to compete”.

B1: Leukotactin (ligand)
chain: SFHFAADCCTSYISQSIPCSLMKSYFETSSECSKPGVIFLTKKGRQVCAKPSGPGVQDCMKKLKPYSI
Take B1: the IC50 with CCR1 on monocytes [11] was below 0.2 nM; in assay [12], below 0.2 nM; in assay [13], 0.02 nM; in assay [14], below 0.2 nM. In addition, in the assay with CCR1, the “Ca2+ mobilization in HEK293-CCR1, THP-1 and monocytes” value was “able to mobilize Ca2+”. Also, the “Ca2+ mobilization in neutrophils” value with CCR1 is “do not mobilize Ca2+”.

B2: mMIP-1γ: CCR1 ligand (protein)
chain: QITHATETKEVQSSLKAQQGLEIEMFHMGFQDSSDCCLSYNSRIQCSRFIGYFPTSGGCTRPGIIFISKRGFQVCANPSDRRVQRCIERLEQNSQPRTYKQ
Turning to B2, in the assay with CCR1, the “Ca2+ mobilization in HEK293-CCR1, THP-1 and monocytes” value is reported as “able to mobilize Ca2+”; the “Ca2+ mobilization in neutrophils” value is “do not mobilize Ca2+”.
